Test results published in IntAct's records for PubMed 20042240.

B1: Complement factor H-related protein 4 (Homo sapiens), Q92496-1 (parent)
chain: MLLLINVILTLWVSCANGQEVKPCDFPEIQHGGLYYKSLRRLYFPAAAGQSYSYYCDQNFVTPSGSYWDYIHCTQDGWSPTVPCLRTCSKSDVEIENGFISESSSIYILNEETQYNCKPGYATAEGNSSGSITCLQNGWSTQPICIKFCDMPVFENSRAKSNGMWFKLHDTLDYECYDGYESSYGNTTDSIVCGEDGWSHLPTCYNSSENCGPPPPISNGDTTSFPQKVYLPWSRVEYQCQSYYELQGSKYVTCSNGDWSEPPRCISMKPCEFPEIQHGHLYYENTRRPYFPVATGQSYSYYCDQNFVTPSGSYWDYIHCTQDGWLPTVPCLRTCSKSDIEIENGFISESSSIYILNKEIQYKCKPGYATADGNSSGSITCLQNGWSAQPICIKFCDMPVFENSRAKSNGMRFKLHDTLDYECYDGYEISYGNTTGSIVCGEDGWSHFPTCYNSSEKCGPPPPISNGDTTSFLLKVYVPQSRVEYQCQSYYELQGSNYVTCSNGEWSEPPRCIHPCIITEENMNKNNIQLKGKSDIKYYAKTGDTIEFMCKLGYNANTSVLSFQAVCREGIVEYPRCE
partner: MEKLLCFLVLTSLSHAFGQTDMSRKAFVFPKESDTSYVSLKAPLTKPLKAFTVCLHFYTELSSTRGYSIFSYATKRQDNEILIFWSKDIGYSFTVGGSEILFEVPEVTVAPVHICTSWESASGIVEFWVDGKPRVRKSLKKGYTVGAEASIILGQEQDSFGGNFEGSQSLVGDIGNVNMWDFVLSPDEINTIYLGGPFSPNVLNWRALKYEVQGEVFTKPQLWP

Experiments:
Conditions in all cases: with crp_human CRP
crp_human CRP, P02741 [1] = variants of: B1
crp_human CRP, P02741 [2] = variants of: B1; remark: listed apart in the source
crp_human CRP, P02741 [3] = variants of: B1; remark: listed apart in the source

Row | Variant | effect of a mutation on the interaction (crp_human CRP, P02741 [1]) | effect of a mutation on the interaction (crp_human CRP, P02741 [2]) | effect of a mutation on the interaction (crp_human CRP, P02741 [3])
1 | MLLLINVILTLWVSCANGQEVKPCDFPEIQHGGLYYKALRRLYFPAAAGQSYSYYCDQNFVTPSGSYWDYIHCTQDGWSPTVPCLRTCSKSDVEIENGFISESSSIYILNEETQYNCKPGYATAEGNSSGSITCLQNGWSTQPICIKFCDMPVFENSRAKSNGMWFKLHDTLDYECYDGYESSYGNTTDSIVCGEDGWSHLPTCYNSSENCGPPPPISNGDTTSFPQKVYLPWSRVEYQCQSYYELQGSKYVTCSNGDWSEPPRCISMKPCEFPEIQHGHLYYENTRRPYFPVATGQSYSYYCDQNFVTPSGSYWDYIHCTQDGWLPTVPCLRTCSKSDIEIENGFISESSSIYILNKEIQYKCKPGYATADGNSSGSITCLQNGWSAQPICIKFCDMPVFENSRAKSNGMRFKLHDTLDYECYDGYEISYGNTTGSIVCGEDGWSHFPTCYNSSEKCGPPPPISNGDTTSFLLKVYVPQSRVEYQCQSYYELQGSNYVTCSNGEWSEPPRCIHPCIITEENMNKNNIQLKGKSDIKYYAKTGDTIEFMCKLGYNANTSVLSFQAVCREGIVEYPRCE [S38A] | with no effect | decreasing interaction strength | 
2 | MLLLINVILTLWVSCANGQEVKPCDFPEIQHGGLYYAALRRLYFPAAAGQSYSYYCDQNFVTPSGSYWDYIHCTQDGWSPTVPCLRTCSKSDVEIENGFISESSSIYILNEETQYNCKPGYATAEGNSSGSITCLQNGWSTQPICIKFCDMPVFENSRAKSNGMWFKLHDTLDYECYDGYESSYGNTTDSIVCGEDGWSHLPTCYNSSENCGPPPPISNGDTTSFPQKVYLPWSRVEYQCQSYYELQGSKYVTCSNGDWSEPPRCISMKPCEFPEIQHGHLYYENTRRPYFPVATGQSYSYYCDQNFVTPSGSYWDYIHCTQDGWLPTVPCLRTCSKSDIEIENGFISESSSIYILNKEIQYKCKPGYATADGNSSGSITCLQNGWSAQPICIKFCDMPVFENSRAKSNGMRFKLHDTLDYECYDGYEISYGNTTGSIVCGEDGWSHFPTCYNSSEKCGPPPPISNGDTTSFLLKVYVPQSRVEYQCQSYYELQGSNYVTCSNGEWSEPPRCIHPCIITEENMNKNNIQLKGKSDIKYYAKTGDTIEFMCKLGYNANTSVLSFQAVCREGIVEYPRCE [K37A;S38A] | disrupting interaction strength |  | 
3 | MLLLINVILTLWVSCANGQEVKPCDFPEIQHGGLYYAAARRLYFPAAAGQSYSYYCDQNFVTPSGSYWDYIHCTQDGWSPTVPCLRTCSKSDVEIENGFISESSSIYILNEETQYNCKPGYATAEGNSSGSITCLQNGWSTQPICIKFCDMPVFENSRAKSNGMWFKLHDTLDYECYDGYESSYGNTTDSIVCGEDGWSHLPTCYNSSENCGPPPPISNGDTTSFPQKVYLPWSRVEYQCQSYYELQGSKYVTCSNGDWSEPPRCISMKPCEFPEIQHGHLYYENTRRPYFPVATGQSYSYYCDQNFVTPSGSYWDYIHCTQDGWLPTVPCLRTCSKSDIEIENGFISESSSIYILNKEIQYKCKPGYATADGNSSGSITCLQNGWSAQPICIKFCDMPVFENSRAKSNGMRFKLHDTLDYECYDGYEISYGNTTGSIVCGEDGWSHFPTCYNSSEKCGPPPPISNGDTTSFLLKVYVPQSRVEYQCQSYYELQGSNYVTCSNGEWSEPPRCIHPCIITEENMNKNNIQLKGKSDIKYYAKTGDTIEFMCKLGYNANTSVLSFQAVCREGIVEYPRCE [K37A;S38A;L39A] | disrupting interaction strength |  | 
4 | MLLLINVILTLWVSCANGQEVKPCDFPEIQHGGLYYASLRRLYFPAAAGQSYSYYCDQNFVTPSGSYWDYIHCTQDGWSPTVPCLRTCSKSDVEIENGFISESSSIYILNEETQYNCKPGYATAEGNSSGSITCLQNGWSTQPICIKFCDMPVFENSRAKSNGMWFKLHDTLDYECYDGYESSYGNTTDSIVCGEDGWSHLPTCYNSSENCGPPPPISNGDTTSFPQKVYLPWSRVEYQCQSYYELQGSKYVTCSNGDWSEPPRCISMKPCEFPEIQHGHLYYENTRRPYFPVATGQSYSYYCDQNFVTPSGSYWDYIHCTQDGWLPTVPCLRTCSKSDIEIENGFISESSSIYILNKEIQYKCKPGYATADGNSSGSITCLQNGWSAQPICIKFCDMPVFENSRAKSNGMRFKLHDTLDYECYDGYEISYGNTTGSIVCGEDGWSHFPTCYNSSEKCGPPPPISNGDTTSFLLKVYVPQSRVEYQCQSYYELQGSNYVTCSNGEWSEPPRCIHPCIITEENMNKNNIQLKGKSDIKYYAKTGDTIEFMCKLGYNANTSVLSFQAVCREGIVEYPRCE [K37A] | decreasing interaction strength | disrupting interaction strength | 
5 | MLLLINVILTLWVSCANGQEVKPCDFPEIQHGGLYYASLAALYFPAAAGQSYSYYCDQNFVTPSGSYWDYIHCTQDGWSPTVPCLRTCSKSDVEIENGFISESSSIYILNEETQYNCKPGYATAEGNSSGSITCLQNGWSTQPICIKFCDMPVFENSRAKSNGMWFKLHDTLDYECYDGYESSYGNTTDSIVCGEDGWSHLPTCYNSSENCGPPPPISNGDTTSFPQKVYLPWSRVEYQCQSYYELQGSKYVTCSNGDWSEPPRCISMKPCEFPEIQHGHLYYENTRRPYFPVATGQSYSYYCDQNFVTPSGSYWDYIHCTQDGWLPTVPCLRTCSKSDIEIENGFISESSSIYILNKEIQYKCKPGYATADGNSSGSITCLQNGWSAQPICIKFCDMPVFENSRAKSNGMRFKLHDTLDYECYDGYEISYGNTTGSIVCGEDGWSHFPTCYNSSEKCGPPPPISNGDTTSFLLKVYVPQSRVEYQCQSYYELQGSNYVTCSNGEWSEPPRCIHPCIITEENMNKNNIQLKGKSDIKYYAKTGDTIEFMCKLGYNANTSVLSFQAVCREGIVEYPRCE [K37A;R40A;R41A] | disrupting interaction strength |  | decreasing interaction strength
6 | MLLLINVILTLWVSCANGQEVKPCDFPEIQHGGLAAKSLRRLYFPAAAGQSYSYYCDQNFVTPSGSYWDYIHCTQDGWSPTVPCLRTCSKSDVEIENGFISESSSIYILNEETQYNCKPGYATAEGNSSGSITCLQNGWSTQPICIKFCDMPVFENSRAKSNGMWFKLHDTLDYECYDGYESSYGNTTDSIVCGEDGWSHLPTCYNSSENCGPPPPISNGDTTSFPQKVYLPWSRVEYQCQSYYELQGSKYVTCSNGDWSEPPRCISMKPCEFPEIQHGHLYYENTRRPYFPVATGQSYSYYCDQNFVTPSGSYWDYIHCTQDGWLPTVPCLRTCSKSDIEIENGFISESSSIYILNKEIQYKCKPGYATADGNSSGSITCLQNGWSAQPICIKFCDMPVFENSRAKSNGMRFKLHDTLDYECYDGYEISYGNTTGSIVCGEDGWSHFPTCYNSSEKCGPPPPISNGDTTSFLLKVYVPQSRVEYQCQSYYELQGSNYVTCSNGEWSEPPRCIHPCIITEENMNKNNIQLKGKSDIKYYAKTGDTIEFMCKLGYNANTSVLSFQAVCREGIVEYPRCE [Y35A;Y36A] | decreasing interaction strength | disrupting interaction strength | 
